Data: PMC9482650, “Quantitative fragmentomics allow affinity mapping of interactomes” (Nature Communications, 2022)

Experiments:
Experiment in all cases: holdup assay
Set-up in all cases: key: below the threshold = too weak to quantify, mostly under pKd 3.1 to 4
Details in all cases: plain residues with an end cap or a label only (N-terminal biotin on a linker: ado-ado)
DLG4_1, P78352 = target: DLG4_1, P78352
MAGI2_6, Q86UL8 = target: MAGI2_6, Q86UL8
MPDZ_12, O75970 = target: T1, MPDZ_12, O75970
T1 sequence (O75970 1857-1958, limits assumed, looked up): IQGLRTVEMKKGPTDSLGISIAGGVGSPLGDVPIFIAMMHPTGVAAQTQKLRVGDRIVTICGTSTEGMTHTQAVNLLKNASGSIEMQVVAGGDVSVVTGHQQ

PTPN3, P26045 = target: PTPN3, P26045
LDB3, O75112 = target: LDB3, O75112
IL16_3, Q14005 = target: IL16_3, Q14005
DFNB31_1, Q9P202 = target: T2, DFNB31_1, Q9P202
T2 sequence (Q9P202 135-233, limits assumed, looked up): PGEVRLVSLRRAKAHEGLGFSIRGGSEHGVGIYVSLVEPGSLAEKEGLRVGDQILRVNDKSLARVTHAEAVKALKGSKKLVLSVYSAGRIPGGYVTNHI

GRIP2_4, Q9C0E4 = target: GRIP2_4, Q9C0E4
CASK, O14936 = target: CASK, O14936
DFNB31_3, Q9P202 = target: T3, DFNB31_3, Q9P202
T3 sequence (Q9P202 811-907, limits assumed, looked up): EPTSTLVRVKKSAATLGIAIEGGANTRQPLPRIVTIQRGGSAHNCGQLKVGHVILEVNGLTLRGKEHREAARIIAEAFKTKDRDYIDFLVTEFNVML

MPP2, Q14168 = target: T4, MPP2, Q14168
T4 sequence (Q14168 180-250, limits assumed, looked up): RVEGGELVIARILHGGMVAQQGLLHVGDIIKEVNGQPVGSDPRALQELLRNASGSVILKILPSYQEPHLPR

MAGI3_2, Q5TCQ9 = target: MAGI3_2, Q5TCQ9
SHANK1, Q9Y566 = target: T5, SHANK1, Q9Y566
T5 sequence (Q9Y566 658-767, limits assumed, looked up): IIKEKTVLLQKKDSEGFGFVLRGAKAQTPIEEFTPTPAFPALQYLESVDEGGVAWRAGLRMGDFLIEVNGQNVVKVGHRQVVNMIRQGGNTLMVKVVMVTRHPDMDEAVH

MPP6, Q9NZW5 = target: T6, MPP6, Q9NZW5
T6 sequence (Q9NZW5 125-219, limits assumed, looked up): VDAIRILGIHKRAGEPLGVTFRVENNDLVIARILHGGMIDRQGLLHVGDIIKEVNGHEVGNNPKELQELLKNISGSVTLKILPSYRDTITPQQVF

MAGI2_4, Q86UL8 = target: MAGI2_4, Q86UL8
GRIP2_5, Q9C0E4 = target: GRIP2_5, Q9C0E4
DLG3_3, Q92796 = target: T7, DLG3_3, Q92796
T7 sequence (Q92796 374-475, limits assumed, looked up): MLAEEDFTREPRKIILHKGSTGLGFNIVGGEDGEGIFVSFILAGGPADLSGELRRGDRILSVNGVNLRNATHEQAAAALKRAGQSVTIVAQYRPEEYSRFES

FRMPD3, Q5JV73 = target: FRMPD3, Q5JV73
TJP1_3, Q07157 = target: TJP1_3, Q07157
SCRIB_3, Q14160 = target: SCRIB_3, Q14160
PDZD7_3, Q9H5P4 = target: T8, PDZD7_3, Q9H5P4
T8 sequence (Q9H5P4 857-944, limits assumed, looked up): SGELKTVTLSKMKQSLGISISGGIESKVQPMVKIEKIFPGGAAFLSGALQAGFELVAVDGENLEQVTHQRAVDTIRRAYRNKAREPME

APBA3_1, O96018 = target: T9, APBA3_1, O96018
T9 sequence (O96018 389-490, limits assumed, looked up): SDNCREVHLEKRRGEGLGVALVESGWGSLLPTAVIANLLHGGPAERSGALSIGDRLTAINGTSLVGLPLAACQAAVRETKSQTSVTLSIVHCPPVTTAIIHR

LIMK2, P53671 = target: LIMK2, P53671
LNX2_2, Q8N448 = target: T10, LNX2_2, Q8N448
T10 sequence (Q8N448 334-432, limits assumed, looked up): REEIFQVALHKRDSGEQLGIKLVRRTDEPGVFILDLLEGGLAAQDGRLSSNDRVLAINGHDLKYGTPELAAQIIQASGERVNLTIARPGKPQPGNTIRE

Inadl_8, Q8NI35 = target: Inadl_8, Q8NI35
DLG4_2, P78352 = target: DLG4_2, P78352
GRIP2_3, Q9C0E4 = target: GRIP2_3, Q9C0E4
GRIP2_6, Q9C0E4 = target: GRIP2_6, Q9C0E4
Inadl_1, Q8NI35 = target: Inadl_1, Q8NI35
Inadl_1, Q8NI35, sequence (Q8NI35 113-229): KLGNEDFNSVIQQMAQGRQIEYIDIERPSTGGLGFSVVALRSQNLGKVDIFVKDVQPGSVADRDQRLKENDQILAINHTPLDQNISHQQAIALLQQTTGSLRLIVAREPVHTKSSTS

GRIP2_3, Q9C0E4, sequence (Q9C0E4 238-339): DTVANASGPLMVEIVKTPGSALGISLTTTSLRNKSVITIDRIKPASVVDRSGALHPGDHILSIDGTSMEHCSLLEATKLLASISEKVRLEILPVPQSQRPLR
MAGI2_6, Q86UL8, sequence (Q86UL8 1141-1229): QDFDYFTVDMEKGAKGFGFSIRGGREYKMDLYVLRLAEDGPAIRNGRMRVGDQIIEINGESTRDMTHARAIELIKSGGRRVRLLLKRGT
SCRIB_3, Q14160, sequence (Q14160 999-1103): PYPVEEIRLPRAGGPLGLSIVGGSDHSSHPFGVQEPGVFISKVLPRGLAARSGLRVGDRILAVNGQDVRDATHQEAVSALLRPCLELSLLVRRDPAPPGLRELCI
LIMK2, P53671, sequence (P53671 143-248): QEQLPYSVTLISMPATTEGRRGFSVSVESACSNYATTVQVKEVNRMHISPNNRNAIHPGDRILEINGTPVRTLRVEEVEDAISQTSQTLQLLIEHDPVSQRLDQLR
MAGI2_4, Q86UL8, sequence (Q86UL8 772-865): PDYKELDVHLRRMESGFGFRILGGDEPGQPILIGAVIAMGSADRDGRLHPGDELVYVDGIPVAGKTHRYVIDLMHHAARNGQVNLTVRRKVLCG
TJP1_3, Q07157, sequence (Q07157 416-512): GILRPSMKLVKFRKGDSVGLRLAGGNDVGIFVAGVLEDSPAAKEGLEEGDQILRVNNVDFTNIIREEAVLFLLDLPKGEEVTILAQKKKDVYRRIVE
MAGI3_2, Q5TCQ9, sequence (Q5TCQ9 398-503): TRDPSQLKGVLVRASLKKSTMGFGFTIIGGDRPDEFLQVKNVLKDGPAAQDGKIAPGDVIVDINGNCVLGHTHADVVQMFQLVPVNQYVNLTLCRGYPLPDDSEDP
GRIP2_5, Q9C0E4, sequence (Q9C0E4 544-642): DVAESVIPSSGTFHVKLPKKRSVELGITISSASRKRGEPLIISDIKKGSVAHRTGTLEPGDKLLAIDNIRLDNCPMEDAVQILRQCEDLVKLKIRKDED
Inadl_8, Q8NI35, sequence (Q8NI35 1425-1530): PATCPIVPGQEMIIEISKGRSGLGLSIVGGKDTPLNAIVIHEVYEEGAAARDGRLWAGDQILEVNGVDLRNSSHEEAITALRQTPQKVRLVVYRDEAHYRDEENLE
GRIP2_4, Q9C0E4, sequence (Q9C0E4 446-548): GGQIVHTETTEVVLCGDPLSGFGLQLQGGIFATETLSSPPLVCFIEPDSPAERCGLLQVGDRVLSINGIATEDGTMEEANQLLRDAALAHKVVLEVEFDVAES
DLG4_1, P78352, sequence (P78352 62-152): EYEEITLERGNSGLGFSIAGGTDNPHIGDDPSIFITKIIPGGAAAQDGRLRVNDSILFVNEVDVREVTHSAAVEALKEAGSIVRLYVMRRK
PTPN3, P26045, sequence (P26045 505-587): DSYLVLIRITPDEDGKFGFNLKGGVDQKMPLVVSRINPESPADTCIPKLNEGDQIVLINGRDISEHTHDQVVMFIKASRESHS
GRIP2_6, Q9C0E4, sequence (Q9C0E4 648-740): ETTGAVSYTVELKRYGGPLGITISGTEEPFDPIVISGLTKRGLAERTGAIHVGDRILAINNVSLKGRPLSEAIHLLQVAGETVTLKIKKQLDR
DLG4_2, P78352, sequence (P78352 155-259): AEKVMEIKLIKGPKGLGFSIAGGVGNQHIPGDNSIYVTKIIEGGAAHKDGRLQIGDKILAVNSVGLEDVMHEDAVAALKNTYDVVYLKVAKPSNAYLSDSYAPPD
FRMPD3, Q5JV73, sequence (Q5JV73 12-100): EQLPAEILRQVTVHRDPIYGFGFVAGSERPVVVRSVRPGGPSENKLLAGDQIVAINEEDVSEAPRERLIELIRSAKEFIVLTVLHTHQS
LDB3, O75112, sequence (O75112 1-94): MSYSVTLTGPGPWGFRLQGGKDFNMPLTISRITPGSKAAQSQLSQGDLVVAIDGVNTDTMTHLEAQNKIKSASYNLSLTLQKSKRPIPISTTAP
CASK, O14936, sequence (O14936 487-570): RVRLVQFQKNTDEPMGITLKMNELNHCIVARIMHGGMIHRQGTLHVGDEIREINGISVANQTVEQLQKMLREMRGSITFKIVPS
IL16_3, Q14005, sequence (Q14005 1107-1207): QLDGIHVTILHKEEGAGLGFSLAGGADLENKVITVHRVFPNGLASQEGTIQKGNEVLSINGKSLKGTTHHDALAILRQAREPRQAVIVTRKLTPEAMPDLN

QKNKDREYYV [NRXN3, Q9HDB5]
pKd (DLG4_1, P78352): below the threshold
pKd (MAGI2_6, Q86UL8): below the threshold
pKd (MPDZ_12, O75970): below the threshold
pKd (PTPN3, P26045): 4.37
pKd (LDB3, O75112): below the threshold
pKd (IL16_3, Q14005): below the threshold
pKd (DFNB31_1, Q9P202): below the threshold
pKd (GRIP2_4, Q9C0E4): below the threshold
pKd (CASK, O14936): 3.55
pKd (DFNB31_3, Q9P202): 3.97
pKd (MPP2, Q14168): 4.39
pKd (MAGI3_2, Q5TCQ9): 4.75
pKd (SHANK1, Q9Y566): below the threshold
pKd (MPP6, Q9NZW5): 4.25
pKd (MAGI2_4, Q86UL8): 3.8
pKd (GRIP2_5, Q9C0E4): below the threshold
pKd (DLG3_3, Q92796): below the threshold
pKd (FRMPD3, Q5JV73): 4.03
pKd (TJP1_3, Q07157): below the threshold
pKd (SCRIB_3, Q14160): below the threshold
pKd (PDZD7_3, Q9H5P4): below the threshold
pKd (APBA3_1, O96018): below the threshold
pKd (LIMK2, P53671): below the threshold
pKd (LNX2_2, Q8N448): 4.81
pKd (Inadl_8, Q8NI35): 3.48
pKd (DLG4_2, P78352): 3.67
pKd (GRIP2_3, Q9C0E4): below the threshold
pKd (GRIP2_6, Q9C0E4): 4.27
pKd (Inadl_1, Q8NI35): 3.69

KAEEKPPSKV [SCN4B, Q8IWT1]
pKd (DLG4_1, P78352): below the threshold
pKd (MAGI2_6, Q86UL8): below the threshold
pKd (MPDZ_12, O75970): 3.49
pKd (PTPN3, P26045): below the threshold
pKd (LDB3, O75112): below the threshold
pKd (IL16_3, Q14005): below the threshold
pKd (DFNB31_1, Q9P202): 3.57
pKd (GRIP2_4, Q9C0E4): below the threshold
pKd (CASK, O14936): below the threshold
pKd (DFNB31_3, Q9P202): below the threshold
pKd (MPP2, Q14168): below the threshold
pKd (MAGI3_2, Q5TCQ9): below the threshold
pKd (SHANK1, Q9Y566): below the threshold
pKd (MPP6, Q9NZW5): below the threshold
pKd (MAGI2_4, Q86UL8): below the threshold
pKd (GRIP2_5, Q9C0E4): below the threshold
pKd (DLG3_3, Q92796): below the threshold
pKd (FRMPD3, Q5JV73): below the threshold
pKd (TJP1_3, Q07157): below the threshold
pKd (SCRIB_3, Q14160): below the threshold
pKd (PDZD7_3, Q9H5P4): below the threshold
pKd (APBA3_1, O96018): below the threshold
pKd (LIMK2, P53671): below the threshold
pKd (LNX2_2, Q8N448): below the threshold
pKd (Inadl_8, Q8NI35): 3.98
pKd (DLG4_2, P78352): below the threshold
pKd (GRIP2_3, Q9C0E4): below the threshold
pKd (GRIP2_6, Q9C0E4): below the threshold
pKd (Inadl_1, Q8NI35): below the threshold

THREVKFTSL [CD46, P15529]
pKd (DLG4_1, P78352): below the threshold
pKd (MAGI2_6, Q86UL8): 4.59
pKd (MPDZ_12, O75970): below the threshold
pKd (PTPN3, P26045): 4.83
pKd (LDB3, O75112): below the threshold
pKd (IL16_3, Q14005): below the threshold
pKd (DFNB31_1, Q9P202): 3.82
pKd (GRIP2_4, Q9C0E4): below the threshold
pKd (CASK, O14936): below the threshold
pKd (DFNB31_3, Q9P202): 3.85
pKd (MPP2, Q14168): below the threshold
pKd (MAGI3_2, Q5TCQ9): below the threshold
pKd (SHANK1, Q9Y566): 4.39
pKd (MPP6, Q9NZW5): below the threshold
pKd (MAGI2_4, Q86UL8): below the threshold
pKd (GRIP2_5, Q9C0E4): below the threshold
pKd (DLG3_3, Q92796): 4.21
pKd (FRMPD3, Q5JV73): below the threshold
pKd (TJP1_3, Q07157): below the threshold
pKd (SCRIB_3, Q14160): 4.8
pKd (PDZD7_3, Q9H5P4): 4.75
pKd (APBA3_1, O96018): below the threshold
pKd (LIMK2, P53671): below the threshold
pKd (LNX2_2, Q8N448): below the threshold
pKd (Inadl_8, Q8NI35): 3.53
pKd (DLG4_2, P78352): 3.7
pKd (GRIP2_3, Q9C0E4): below the threshold
pKd (GRIP2_6, Q9C0E4): 3.98
pKd (Inadl_1, Q8NI35): below the threshold
